Source: publication PMC3140604

Legend:
[1] = substrate: CC(=O)O; assay: cells, lysate or membranes; type: cell-based, Homo sapiens; settings: Na+ competes with nicotinate for uptake via SLC5A8
[2] = substrate: O=C(O)C(Cl)Cl; assay: cells, lysate or membranes; type: cell-based, Homo sapiens; settings: Na+ competes with nicotinate for uptake via SLC5A8

B1: SLC5A8 (Homo sapiens) (protein)
chain: MDTPRGIGTFVVWDYVVFAGMLVISAAIGIYYAFAGGGQQTSKDFLMGGRRMTAVPVALSLTASFMSAVTVLGTPSEVYRFGAIFSIFAFTYFFVVVISAEVFLPVFYKLGITSTYEYLELRFNKCVRLCGTVLFIVQTILYTGIVIYAPALALNQVTGFDLWGAVVATGVVCTFYCTLGGLKAVIWTDVFQVGIMVAGFASVIIQAVVMQGGISTILNDAYDGGRLNFWNFNPNPLQRHTFWTIIIGGTFTWTSIYGVNQSQVQRYISCKSRFQAKLSLYINLVGLWAILTCSVFCGLALYSRYHDCDPWTAKKVSAPDQLMPYLVLDILQDYPGLPGLFVACAYSGTLSTVSSSINALAAVTVEDLIKPYFRSLSERSLSWISQGMSVVYGALCIGMAALASLMGALLQAALSVFGMVGGPLMGLFALGILVPFANSIGALVGLMAGFAISLWVGIGAQIYPPLPERTLPLHLDIQGCNSTYNETNLMTTTEMPFTTSVFQIYNVQRTPLMDNWYSLSYLYFSTVGTLVTLLVGILVSLSTGGRKQNLDPRYILTKEDFLSNFDIFKKKKHVLSYKSHPVEDGGTDNPAFNHIELNSDQSGKSNGTRL
Question: Which Km [1] does the source give for B1 here?
Answer: The Km was 1600 ± 100 µM.

Question: And the Km [2]?
Answer: Its Km is 36 ± 7 µM.
